Assay results taken from the DeepSol protein solubility set.

test: soluble on expression in E. coli; label from the status in PepcDB or PDB records

Sequence	soluble on expression in E. coli
MMEITRETMSFTSTTPSARAPLGGRTTGNVTSQDRMLKIVTEMRSGAGSGLSPFGQNAASTIRDSREREKKEMSDLNDRLASYIEKVRFLEAQNRKLAADLDALRSKWGKDTHNIRNMYEGELVDAQKLIDETNKQRKDMEGQLKKMQDELAEMRRKLEDATKGREQDRAKIDALLVTLSNLEAEISLLKRRIAQLEDEVKRIKQENQRLLSELQRARTDLDQETLNRIDYQNQVQTLLEEIDFLRRVHDNEIKELQTLASRDTTPENREFFKNELSSAIRDIREEYDQVNNVHRNDMESWYRLKVQEIQTQSARQNMEQGYAKEEVKRLRTQLSDLRGKLADLESRNSLLEKQIQELNYQLEDDQRSYEAALNDRDSQIRKMREECQALMVELQMLLDTKQTLDAEIAIYRKMLEGEENRAGLKQLVEQVVKTHAITQETDTETMRVVKGETASRQSFQRSAKGNVSIHEASPDGKFIVLQNTHRAKDEAIGEWKLKRRIDGKRENVYTLPRDFVLRAGKTLKIFARNQGVASPPDQLVYDAEDSFGSGNNVQTILFNKEGEERATHIQRQSTA	not soluble
GMKLQTTIQHEPKDGSGFDRGLREFFEYRDTGVNEATGGMFGAHVIRAIPGKEAKPTWHTHTVGFQLFYVLRGWVEFEYEDIGAVMLEAGGSAFQPPGVRHRELRHSDDLEVLEIVSPAGFATSVVDLEEARKP	soluble
MNFPVSDLTSYQELIEQQGLKSQTNIISLDKIIVDIILSEKTGFSRSQQVWCLIRQRIVDGCASVVDIDYLDMRLMPQLNRSIAENSIYDYLENQLHLSISHAFKEITIDNTSEQDKILIDIGKDHHVVCIRSKVYLNNGNQLQFTESRHKLEKFKFVYYAKRHH	not soluble
MSLDVISELVKKNGSKILLIVLDGLGGLPVKEGKTELELAKTPNLDKLVKNSATGLHIPVDWGITPGSGPGHLGLFGYDPIKYQIGRGILEALGLGIDVKDTDIAVRGNYATVEYRNGKPIVVDRRAGRIPTEENKRITAKLQEAIKEIDGVQVIIKPGMEHRLAIVFRFPEKLSPGSDAINDTDPQQVGKEPLEPKGENPNAEKVAEVVRKFIQRATEILRNEPKANYILLRGFSQKPDIPTMEERFGVKPCCIAVYPMYKGLASLVGMDVIEFEGSTIQDEIDTLKKVWNEYDYFFVHIKKTDSYGEDGNYEGKVSVIEDFDAHLPQFLELKPDVLAITGDHSTPSILKGHSWHPVPLLIHSPYVLGGTSERFTERECLKGELGIIPAVKITQLLLANALRLKKYGAEGHHHHHH	soluble
MTDQERIELQKNNPLHGLKLETLLQELVDFYGWDILDTAMRFNCFHTKPSIASSVKYLNKTEWAREKLENFYLYRFKRMPRASSEEFTLPPRARTFPHGLHPKEPMALTVDSILKSQAKAASAHKERTSRSRYNQR	not soluble
MGSDKIHHHHHHMDVIQLSNDGRCRWLEKQVMNKIFPQAIRSAKIKDIPTQYMIIDWISNDNGKVGVDLKWFKKLGVPYVKTYNDLPEGNDFVVVNTGYDSIVHEEKVLREKGVEILDKPCPFVRKLRKEFEKIDDSYQYVLLCESNHIIIKNFATIFPRDMILIQMGNYKEKLLEQSNGKPMMFISYVTFLKKHSIQVFDFINKTFPGKDHKMVDTQCMWAAGRLSPIDEIRNMSEDILKEVRYALLIGSPGSTNKSLMSLHETIIDKGLEVINIGSLRDFLDFRRKHKKEKVLLVKSPIPNQAEKPILAFLRHGYLYAYYTLWRER	not soluble
GPGSMNLELYVTLADLSRLPRGEPHDVKTLICRADTVRAPRPRELLSGRVFDISGQLLDTEYKGMPGETCVHVFFYDEWASAASFIERDDIVILKGFTVYDTPRVGDHDVEFPFFVTPIPHMAALRALQKGHKDDIMEVTVTADALETPNIRVMPKRLWGSYIANDMQCPRTNND	soluble
MVISMSDLTFEDVKKEISALDKLSDLEAKKYADTGGYADVIARANNLKTTQLRKFFSAIRSMEKKADSWKSIEADFYLLKPQLANARGRDLIPEGFYEVMKKMMDKVDRGDDDEKIENFRVFVRFLESIVAYHKFYNPRS	not soluble
PNEKFCFEGFLPQKKGRMTKLKSLVDEHRTMVFYESPHRLLKTLTQFAEYFGPERQVSVSREISKIHEETVRGTLSELIEHFTATDPRGEIVIVLAGIDD	not soluble
MKRCLAILAFAALLFPALPAYSAPARQPSSNTPPPDIVMHPEYARTIGRLAYVWGWPMVNMLNRNARITKAPHPGLLGGILPAAPRGQVGMLHDYILPAETFVTCPNQDVVYGLGFFSLDTEPVIAQVPDFGDRFWVYALYDHRTNQFGELGKPYRSKPGFYLLVGPNWKGQKPAGVQAIIRSPTALANAIPRIFMDDTDEDRQAIQKKINQVVFYPLKDFDGKMKSLDWQSTADIPNPGADSANAGETRWVVPEEFFNQFGQVLDMVPPLPGEEAMYVQFRSMMDAAAKDPAIKNALVEVAKETEEQVIAPFFQWKHNGKPAGNNWNRSVNNAQTGLDYFNRTGTAKSNMFDNRPNETQYFYTDFDSTGAVLDGGKRYEITFASGQLPPVKGFWSLTLYNKHHLFSPNDLNRYSLGTKNKNLVRGPDGSLTIHVGPTSPGKDKEANWLPSPREPISLYIRAYWGEQAILDGTWKPPAVKKIELEHHHHHH	not soluble
MRALRLVTSESVTEGHPDKLADRISDAILDALIAQDKKARVAAETLVTTGLVFVAGEITTEGYVDIPNLVRKTVREVGYTRAKYGFDADTCAVLTAIDEQSPDIAGGVNLSYEWRVLKSTDPLDRVGAGDQGLMFGYATDETPELMPLPITLAHRLTMRLAEVRKTGLLPYLRPDGKAQVTVVYEGDKPLYVKTVVVSAQHSPEVEQEQLREDLIREVVRQAIPPEYLKDGETEYLINPSGRFILGGPHADTGLTGRKIIVDTYGGAVPHGGGAFSGKDPTKVDRSASYYARYMAKNIVAAGLARRALVELAYAIGKARPVSLRVETFGTGVLPDEKLTEIAKKVFDPRPLAIIEELDLLRPIYTPTSAYGHFGRPGFPWEETDRVEALRREAGL	soluble
MNWHPAACKISAKGGYLRVIIDASNVAHSRKNDEEKPCIENILSAAEELEKLGYEPVIIADASLRHEIDDKEQFRKLLEEGKFQQVPSGTSADHFILKMAEEEDAKILSNDVFRDYKDEFQDINSRRIPYTFREDKILIGTSGKPKKVKNILQKICNEALREFERKRIDAYKVKRGKKLSGIAIAKEAIDRISRSQEEGLEPRLEGIFMKLPLFERFMSMVEEVERTSNYIIFVLVHPKDYRDAVKYAGNIAVTVGDRLKLEHAPLVAVRNDLFLKPGTFELNIMYSEDVMEEAPYNVNITINDHDYSFVKKNSRNIASTLAARIGSWRFPIVSVKPSMLLEKPGEFEVVLEKGGNDLEHHHHHH	soluble
APIKGVTFGEDTVWEVQGYKNVRITFELDERVDKVLNEKCSVYTVESGTEVTEFACVVAEAVVKTLQPVSDLLTNMGIDLDEWSVATFYLFDDAGEENFSSRMYCSFYPPDE	soluble
MALLEICCYSMECALTAQRNGADRIELCAAPKEGGLTPSFGVLRSVREHITIPVHPIIRPRGGDFYYTDGEFAAMLEDIRLVRELGFPGLVTGVLTVDGDVDMSRMEKIMAAAGPLAVTFHRAFDMCANPFNALKNLADAGVARVLTSGQKADAAQGLSIIMELIAQGDAPTIMAGAGVRANNLQNFLDAGVREVHSSAGVLLPSPMRYRNQGLSMSADIQADEYSRYRVEGAAVAEMKGIIVRHQAK	not soluble
MPCVQAQYSPSPPGSTYATQTYGSEYTTEIMNPDYAKLTMDLGSTGIMATATTSLPSFSTFMEGYPSSCELKPSCLYQMPPSGPRPLIKMEEGREHGYHHHHHHHHHHHHHHQQQQPSIPPPSGPEDEVLPSTSMYFKQSPPSTPTTPGFPPQAGALWDDELPSAPGCIAPGPLLDPQMKAVPPMAAAARFPIFFKPSPPHPPAPSPAGGHHLGYDPTAAAALSLPLGAAAAAGSQAAALEGHPYGLPLAKRTATLTFPPLGLTASPTASSLLGESPSLPSPPNRSSSSGEGTCAVCGDNAACQHYGVRTCEGCKGFFKRTVQKNAKYVCLANKNCPVDKRRRNRCQYCRFQKCLSVGMVKEVVRTDSLKGRRGRLPSKPKSPLQQEPSQPSPPSPPICMMNALVRALTDATPRDLDYSRYCPTDQATAGTDAEHVQQFYNLLTASIDVSRSWAEKIPGFTDLPKEDQTLLIESAFLELFVLRLSIRSNTAEDKFVFCNGLVLHRLQCLRGFGEWLDSIKDFSLNLQSLNLDIQALACLSALSMITERHGLKEPKRVEELCNKITSSLKDHQRKGQALEPSEPKVLRALVELRKICTQGLQRIFYLKLEDLVSPPSVIDKLFLDTLPF	soluble
MSLSAYAELHCLSNFSFQRGASSAAELFQRAKALGYQALAITDECTLAGIVRAWQASRDTGLKLIVGSEMQVEDGPRLVLLVEDLAGYQGLCRLITRARRRAEKGSYRLLREDFAEPLPGLLALWLTGAGEPLAQGRWLQQVFPQRLWLALELHCGQDDARHLQQQLALARQLGLPAVACGDVHMHVRGRRALQDTMTAIRHHLPVAEAGQRLFANGERHLRPVEVLQGLYPQALLDESLAIAGRCAFDLGQLRYQYPRELVPEGHDAGSWLRVLTQRGIVRRWPTGARAEVLKQIDKELTLICDLGYESYFLTVHDIVDFARRQHILCQGRGSAANSVVCFALGITEIDPDRSTLLFERFLSRERNEPPDIDVDFEHERREEVLQYLFQRYGRHRAALTAVVSTYHGAGAVRDVAKALGLPPDQVNALADCCGHWSDTPPSVERLQEAGFDPQSPVLRRVLSLTGQLIGFPRHLSQHPGGFVISEQPLDHLVPVENATMAERTVIQWDKDDLDMVGLLKVDILALGMLSAIRRCFDLIHGYRGQRYSLASIPPEDPATYEMIGRADTIGVFQIESRAQMSMLPRLKPQNFYDLVIEVAIVRPGPIQGGMVHPYLRRRNRQEPETYPSPELEGVLKRTLGVPLFQEQVMQIAIVAADYTPGEADQLRRSMAAWKRHGGLEPHRERLRRGMNRNGYSDEFATQIFEQIKGFGSYGFPESHAASFALLTYASCWLKCHEPAAFACALINSWPMGFYSPDQILQDARRHGLQVLAVDVGASDWDCSLEPIPVQPARAGNGPPGQPALRLGLRMIKGFREDDARRIERARRQRAFVDIADLGERARLDVRAQELLADAGALQALAGDRYRARWEVAGVERQLGLFAEGHHHHHH	soluble
MGGSHHHHHHGMASMTGGQQMGRDLYDDDDKDRWGSELEISMEQVSASIGNFTVDLFNKLNETNRDKNIFFSPWSISSALALTYLAAKGSTAREMAEVLHFEQAENIHSGFKELLTAFNKPRNNYSLRSANRIYVEKTYALLPTYLQLSKKYYKAEPQKVNFKTAPEQSRKEINTWVEKQTESKIKNLLSSDDVKATTRLILVNAIYFKAEWEVKFQAEKTSIQPFRLSKNKSKPVKMMYMRDTFPVLIMEKMNFKMIELPYVKRELSMFILLPDDIKDGTTGLEQLERELTYERLSEWADSKMMTETLVDLHLPKFSLEDRIDLRDTLRNMGMTTAFTTNADFRGMTDKKDLAISKVIHQSFVAVDEKGTEAAAATAVIISFTTSVINHVLKFKVDHPFHFFIRHNKSKTILFFGRFCCPVE	soluble
MSLKITDLRVAVVSRAPMTCPIIRIDTNQGIYGLGEVRDGASKNYALMLKSRLLNENPCNVDKLFRKIKQFGGHARQGGGVCGVEMALWDLAGKAYNVPVHQMLGGKFRDRIRCYADTTESHDPKVYGQRLKARRDEGFTWLKMDLGVDLVADVPGALTMPVGERINGNPMVAHMFTGNEITEKGIQLMCDYVAQIREIVGMDIPLSADHFGHIGVNSCIRLGKALTKYNMAWLEDMIPWQQTALLKQIADAVDIPILTGEDIYLKEPFIELCKAHAVDIIHPDLATSGGILETKKIGDAAQELGVAMAMHFAGSPVSCMANVHCAAATENFLVLENHSVDVPWWGDLVEGVSKPIVSKGFITVPNGPGLGVTLNDEVVKQHLGEPGYFEATPYWNVDRSNDRQWSEGHHHHHH	not soluble
